Experimental data: the NTF2 design screens of Basanta et al. (2020)

Assay: protease stability score; higher = more stable; yeast display proteolysis, trypsin and chymotrypsin;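 further: relative to predicted unfolded state with 0 unfolded-like and 1 meaning tenfold more protease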

Point of comparison: “TEEEKKSEEFLKKLTHAWRTGNEDTLTHMMDPHVRIDFNGQELIGMEHARRLISELRVEDLEIESITHQGNKVHIRGRDLVLFNGQQRTIDTIFILKKVDGRWIIESIEFR”, protease stability score 1.9. Against it:
- THEERLYREAMELEREVWETGDEHLIRDMVDPNVRFEINGVNTHGREEMARFVHEFGVDHIHIDHLQRINGRLEVRGKFQVGDKWVRTRFISTKINGRWFVESVHVR — lower, 0.626
- SEEEEQVKELIKWLIEVWLTGNEEFIRDLADPHVRMHIEQGDKKVDSHGRETLLKDLERYRREIRFEYIEIHDIRIYNGRAEVDGRLFGLINGQRMELNVILIFVVVDGKIREIAVHIR — lower, 0.26
- NEMHDFAKLAIELLLKSLKTGDEHTLEHLLDPNVRMNIDGRRWHGRENWVKRVHDLGITTRDFKLTDVKNQGNKVHIDGHAVEEVNGQRIERRVEIISVKIDGKWEIEEIRIE — lower, 1.02
- DEDERISRNFVRLILHAIRTGNENMIKTMADPNDRLEVGDKEFHGRELALEFWFRFDVLKEFHIRSVHSQGDKLHIEGESTWVIGDKEIRTTEHRLIIKIDGQWVLTEIKME — lower, 1.62
- DEMEETTERITRLIHHYHRTGDWRLLSDLFDPHAKSEVNGVRLHGWHEMREFFENEMRELGIENVRFRYHLHDYRIFDGRVDLDVRLEIRIGDKEDHMESHIHTEKVNGQWRLRTLSLN — lower, 0.412
- DEKSEHILELLRLMLELLVTGDWSMLRKLVDPNARMYYGDKEFHGWEDMVKFIKILLERIDHVEIRLHNSDVQGEKAKSDGTLIERVNGQEVRFDSHIINIVVNGRAKEVRIEVH — lower, 1.22
- DQREETTNRALHEFIENLITGDEHELLRLLDPNTKMIWNGRENHGWKRAKTVLKEFLERIDVFKDHKLRNMELQGNKAEVEGQVIFEIDGKEVRHDLSLIFLKVDGKWMIESIEIR — lower, 1.34
- GEKEELSRLALHLWFRDYHTGDEDSAHRLLDPNVRLHVGDKHFVGRERFTRFWHEVYRELRIDDYILHSEDIQGDKIHMDGRIDGVVGDKREDFRTEIHLIWIDGKLHSEKRDKE — lower, 0.902
- ETEEQYAEELARLYIEIWETGDEETLHKLADPDVRNDVDGKQLHGRESMIEFWRKLGISNVHFILHRLHVKTQGDFIDIHIDGQLDINGKVTRVEHRLHVEKYNGRWLLKEIYIKRD — lower, 1.72
- DEVEERMKRIVKHFVSAVLTGNFRHMEQLFDPNYKHRIEIGDKIVNLHGWEAVVKWIEEEWRRFDHVEIRIRDMDVIGNKSEVHGDLHLKAENHTLEIHVIEHFFIVNGKLHHIEKTHH — lower, -0.007
- SEEERDMKEWLRLHVEALRTGDEHHLRHLMDPHTRIQVGDKEIHGMDEIARHVREIRQHVEIRVHHVEIIGDKIIMDVELRLIVHFDGKTFDIKTRFLLHIWKVNGRWILKSVHIE — lower, 1.21
- DEDTHKLDKHVKEVLTAWETGDEEMLLRLIDPDARITIGDKEVIGMEEALKHWKEIRIKHLELTDFKLVDGQLDSKVQVHSEVNGRRFETTIRIVLHKINGKWRIRSMTFI — lower, 1.34
- DEMTEDSERAMEILVRSILTGDEKDLIELADPNVRLDVNGRDYHGWKNFIKVFKKIMDELRIKDTELKDVRNQGEKAILDTRIHGIINGREIIFESSIDHRKINGVWLIERIIIK — lower, 1.1
- SEHEEASERMTRLTLHLFETGNEEVFNRLADPHTRVIINGQEHVGRETVIEFLKKERDELGADVLIIKDIDVERQGEKVEVIFHGEIKFNGRYYKVEIIIIYLKVDGKWFIESMKHIVK — higher, 2.37
- SDLERDAREAFEHYVNLMRTGNEHIVEHLIDPDVKIEIGDKQVVGREEVLKLFHHLVKHLRWHDTKLHHVHYQGDKMLLDMRLDGTIDGRRLDTRVIWFILKIDGVWFIKYQHYH — lower, 1.81
- SEEHRKVEEFARHWLHNFQTGDFRRFYELVDPNVRLRQGDWEFHGREIVAEWLFVHLEHARIDDYKVNHVENYNGRSIIDSEIHGEINGRRDITRVEIILIIINGRVHYVEIRIR — higher, 2.31
- SEEEDKARHLFDRLVHAWHTGDWRELKHLLDPNAKFVLEYGDKKETYHGMDEEIRYLEELHKRVDHIHFLIRHVDIQGDKLRVEGELEYRVGDYERRIPTSYEVIVIDGRIHEIISRIH — higher, 2.11
- SEDEKNSRKFLEDWIRALETGDEHRLEELLDPHVLVIVDGVHYWGMEIFLKERRRHGFKLKDVRLEHMTIQGDKVILHVQIEVHINGRDHHLESYIIIEKVNGRWHVSKLELR — higher, 2.71
- SEHEEVASRVTTEIIHNLLTGDWQRTTELMDPNTKLDVNGQHHHGWELYHKVLREWHEELRVHDMKEHDLKVIDGVAFSNMRVDIEINGVRFETEIRIIVVVVNGRIKSISFESK — lower, 0.771
- DDYEKSSKVVWQILVRALETGDEEELRDLFDPHVRIQIGEFHFHGWETVHEHMRRADHIIVRDSKSRDIDHQGNKVILHVDLHIEFTYNGVERSTTFRSNMIMVKVNGKWVIEKIHLQ — lower, 1.55
- DEREEIAKHLLDLLMHFSKTGDWKKIEDLFDPNTRIHINGVEHVGMEEIARHISEWRIHSIHIKHLDYQGEFIHMDGELDVEVNGRRHKTRMHIIVVKYNGRWLIHHIEVH — higher, 2.03
- SEEDEERKHFLELWRESFETGDEDSSRDMADPNTRIHIGDKEQVGWEDVMHEMVKIKNARYHIVVHHVEIQGDKLTMDGEVRIDVNGRLIQIRTIIIARKYDGRWIVTHVHIH — lower, 1.3
- HEDEHELRHAVELFIWLIHTGDWHTELRLADPDVRHEVNGVENHGRELMLEDLQRIKNIRFHVRRVEIRVYGDKADLHIHGRKIVDGRHKELEIHVHIRKVNGKWLLHEVEVNIR — lower, 1.59
- DEDEEISKRLLKQLIHMLKTGDEDLFWHLFDPDTRLIVGDKEDHGREELAKSIRELWHEIRIERLHLRSIHIIGDFIHLIVRLIRNVNGKKDDINLELIVIKVDGKWRFKEMEIQ — lower, 1.44
- DDWEEILREMIERWLKIFLTGDEEQLQRLADPDTRLNFNGREHHGMETLRRWRHRYEEEMRVRRINVKHEEFQGEKIRMDTELHTEVNGVKIITRTELIFIIINGRIKEVEIRVK — lower, 0.853
- DEDERTMRIAFEMFKHNLETGDEDVIRRFVDPHVKIDIDGVHLHGWEVMYERIMRFDHVDIRLRDIRTFNGRAEIDGEILVEINGVSIEKRLIIHSEKIDGRWILRSHRII — lower, 0.89
- DEEHKIIRDFADEFWHWHLTGNFEEIAKNMDPNVRYEIRIGDKVILHIGMEDVERYLREEIHKFKNLTEDLESKHVVGNKLHLDARLNWNGKTVDIHIEIVVVNGRFKTVTIHIR — lower, 1.36
- DDLEESLKHLLELIIQWIRTGDFHMLSQYADPDVKIHYNGREYIGREFFLQLMREMGANHFSVERIDFQGDKLHVEISFRVGDKETHTRVESWKFNGVWLLKHIEMR — lower, 0.463
- SEREEYSHRAVELLIHLLRTGDEDMISKLADPNTYLDWNGREEVGMEDWLRLLREMRIHDVIIHTIEIQGDKIHMDVIIDGEFDGRRTEMRVHLILLKVNGRWVLTEVKIH — lower, 1.03
- DEHEEISRRLAEFENEWINTGDEESFARNADPDVRIHVGEFHSHGREEMIRILKEFFRWLGVKHFRPTHIEIQGEKVIIYLEWHFDGRTHRIQIISVVVDGRRKSFQVHKL — lower, 0.185
- DEESKESHDIMRILLHIFRTGDEHKLKEMADPNTLFHIGDKEFHGREEFVHFLREVFEKIKNIKHRITDIKDVGDKIHVEVEEKVNGRHRHVELIWLVVDGKIQWYEIRIR — lower, 1.23
- SEEEHEEREAIEQLTRSLTTGDEHMMTNNMDPNVRIHIDGRDLVGREEAIKWLQEIHKKYKNIKYEIKRIDSFNGRLIVDGRVEYNGRRVDMHLIALKFDGRWLIEEVRVN — higher, 2.26
- SEEFEIYKRASELLAHLMLTGDFDTMNKLMDPNVRLDVDGVDFHGRELVNRKFQHMRIEHTHIERVIWIGDKVHVHTTMTGNIDGRRDERKMEIVSHKVDGRWHVHSVIIL — lower, 1.12
- SEDERWLELLSRLLIEATRTGDWRELRHMLDPNVQLSFDGVQLHGRETIIEFLRHEERRLGVKHIDLHDRRIEYFDGRVILESELIIHYGDKEHRSEVRVYANKVNGRWFIEHIEIG — higher, 2.13
- SEEEHLFEFVIRVIYHAMKTGDWEFWERYLDPHVRYQQGDKEHHGRKMTLHYLERLSDELGVTRIEVDLKHIHVYNGRVEIIGELNINGRRTEVRITSEKINGRWTVKELHIV — lower, 1.55
- DDEEKLSKDASELWKKSMLTGDEDTLMKLADPHTRLEIRIGDKTDEIHGMEWVAHLLTNLGIDHFILRDEHIQGEKVIIRGEIDINGRTHESIIIVIIINGRLKSVTFIKL — lower, 0.94
- TEEDHFLKRELEKYIHSILTGDEDSTQHMIDPHARVFWNGVELHGRDAITKIMREWRIRHVRIERFEVQGDKIESHSISHMEINGKKHDHIFRITSEKYDGRWVIRELSIE — lower, 1.51
- SEHEHSSRIAIELLLKTLKTGDERKIEENFDPNVRLIFEGRHIVGREEVFQHIHHLAHELRIEDMKIRRVEHVNGRIHIDLHVVIEINGQRIETDSHMVILKIDGKWKIELLEWR — lower, 1.61
- DDEERIWRELLEIWIKLMETGDEDTTRKNADPHAKHILVIGDFTLVLHGWDLTVKFLKELSERMGINHIHVHRVEAINGQVHIDSRLRVGDKDVHTHIRIKIVDGVLKETNLHIK — lower, 1.62
- DEEEEHWKHIAKEYLDNFRTGDWKNFMDNADPDYRFILSQGNKEDNHHGMHFFVEWILRFLKKFKNATFVLRHFSIQGNKIHMELDITVGDKRIDTKINIEIIDGVVHTIEIRLD — lower, 0.821
- DELEKAMRTAVELFRHLIETGDEEFMQRLADPHTQLIVGDKTFHGRDHVVHEWEKFKNVKYRFEDVEFQGDKIILHSTLEFDGRRLETHIQLHKINGRWLLKRVEIK — lower, 1.39
- SEDEKDAHEAVKRMVHFSETGDWREIEELADPHYRIDWNGRTHIGREEFTEITKRLGINVIRHRHITIINGRIHVHGEVHFNGQSTEVEFIITKINGKWRLHEMIIR — lower, 0.747
- DDDTREFEKWEKIWVEYYQTGNFDHLRRLIDPNVRSIVDGKEFHGREAMASMILEETKRADHIEMDLTRHEIIGEKMIIHSRIEIQVGDYHDHYRLELESIKVNGKWIVHRESYR — lower, 0.039
- DEDTNLLREFVRLLSEALKTGDEDTLRTLFDPHVRFIIGDKDLVGREAFHFFLERFDVIRSVELHNYDHYGDKVTLDTRQVIHVNGQDIRIHSHIVVTKVNGRWRLESVKFK — lower, 1.25
- DEEQEIMEHILEELLRIDWTGDEHVLERLLDPNMQLEFNGVRLVGMEEVQRWLRRFLTEIRIHDFKVHDFHSFNGRLHSDVEVDFQVNGQRHITRVRLNLEVINGVVHRVEVRHE — higher, 2.17
- TEDQEQLEQHIRELTHNWHTGDFDSLKKLFDPNVKLEIGDKEYHGRELAEKYIRDELRHLRIEHVENREWRLINGVIILHTRLVGNIDGQRVERDTEIYVKKFDGQWIIEIFRVH — lower, 1.34
- DEDEESTKHALELWEESMETGDEHDLKHLVDPHARLEVGDKTYHGREAVHVLFRRIDHLHDIRIDHVEVQGNKIHMDVTLNYYFNGRVEEEKFEILILKINGRWRIKSMRIK — lower, 1.78
- NEDEEAHHKLIKEYSRLVDTGDWRSLRRYLDPDYRLRVDGVDIVGRDELHRILEQMLDRVDHLHLNIERHRIQGDFLISDVKHHYEFNGKHVERKVIIYIWKFDGRWIMRYTEVL — lower, 1.02
- DEVEKHLVHLTHRWIHSLLTGDEETISELLDPHARFNQGEWHHHGRELELRYWKEIRFKEMRISRYTAQGDKYHLDTELKGQVDGKEVRVRTHVHLVWVNGRAQSIYVEIH — lower, 1.02
